Measurements: PMC3498381, “Isolated Toll-like Receptor Transmembrane Domains Are Capable of Oligomerization” (PLoS ONE, 2012)
Numbering of substitutions follows the chain as printed. Numbers in names are those of the source.

B1: TLR2 transmembrane domain (ToxR chimera) (domain or fragment)
chain: GNRASALVSGMCCALFLLILLTGVLCGSLIN
notes: flank encoded by the reading frame of the plasmid construct; Toll-like receptor 2 transmembrane domain, human, as identified by hydrophobic analysis; One molecule for the ToxR and the ToxR* form of this TMD; also called TLR2 TMD; wild type TLR2 TMD; source: E. coli FHK12, transformed with pTox7 or pTox6 plasmid, in the cells' membrane
B2: TLR10 transmembrane domain (ToxR chimera) (domain or fragment, human)
chain: GNRASALLIVTIVVIMLVLGLAVAFCCLGSLIN
notes: flank encoded by the reading frame of the plasmid construct; Toll-like receptor 10 transmembrane domain, human, as identified by hydrophobic analysis; One molecule for the ToxR and the ToxR* form of this TMD; also called TLR10 TMD; source: E. coli FHK12, transformed with pTox7 or pTox6 plasmid, in the cells' membrane
B3: TLR1 transmembrane domain (ToxR chimera) (domain or fragment)
chain: GNRASITLLIVTIVATMLVLAVTVTSLCSYLGSLIN
notes: flank encoded by the reading frame of the plasmid construct; Toll-like receptor 1 transmembrane domain, human, as identified by hydrophobic analysis; One molecule for the ToxR and the ToxR* form of this TMD; also called TLR1 TMD; source: E. coli FHK12, transformed with pTox7 or pTox6 plasmid, in the cells' membrane
B4: TLR6 transmembrane domain (ToxR chimera) (domain or fragment)
chain: B3 chain with V14G, S29I
notes: flank encoded by the reading frame of the plasmid construct; Toll-like receptor 6 transmembrane domain, human, as identified by hydrophobic analysis; One molecule for the ToxR and the ToxR* form of this TMD; also called TLR6 TMD; source: E. coli FHK12, transformed with pTox7 or pTox6 plasmid, in the cells' membrane

Legend:
[1] = biological target: T1, TLR1 transmembrane domain (ToxR chimera); test: heterotypic ToxR assay; conditions: chain shown with the change; competitor TLR1* (nonfunctional ToxR* chimera); PolyLeu* = 1.0; lower signal = more ToxR inhibition = more interaction; parent: est. 0.47; read off a plot
T1 chain: B3 chain

[2] = biological target: T2, TLR10 transmembrane domain (ToxR chimera); test: heterotypic ToxR assay; conditions: chain shown with the change; competitor TLR10* (nonfunctional ToxR* chimera); PolyLeu* = 1.0; lower signal = more ToxR inhibition = more interaction; parent: est. 0.41; read off a plot
T2 chain: B2 chain

[3] = biological target: T3, TLR2 transmembrane domain (ToxR chimera); test: heterotypic ToxR assay; conditions: chain shown with the change; competitor TLR2* (nonfunctional ToxR* chimera); PolyLeu* = 1.0; lower signal = more ToxR inhibition = more interaction; parent: est. 0.42; read off a plot
T3 chain: B1 chain

[4] = biological target: T4, TLR4 transmembrane domain (ToxR chimera); test: heterotypic ToxR assay; conditions: chain shown with the change; competitor TLR4* (nonfunctional ToxR* chimera); PolyLeu* = 1.0; lower signal = more ToxR inhibition = more interaction; parent: est. 0.90; read off a plot
T4 chain: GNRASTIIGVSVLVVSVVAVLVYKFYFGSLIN

[5] = biological target: T5, TLR5 transmembrane domain (ToxR chimera); test: heterotypic ToxR assay; conditions: chain shown with the change; competitor TLR5* (nonfunctional ToxR* chimera); PolyLeu* = 1.0; lower signal = more ToxR inhibition = more interaction; parent: est. 0.53; read off a plot
T5 chain: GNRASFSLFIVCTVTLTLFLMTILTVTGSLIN

[6] = biological target: T6, TLR6 transmembrane domain (ToxR chimera); test: heterotypic ToxR assay; conditions: chain shown with the change; competitor TLR6* (nonfunctional ToxR* chimera); PolyLeu* = 1.0; lower signal = more ToxR inhibition = more interaction; parent: est. 0.24; read off a plot
T6 chain: B3 chain with V14G, S29I

[7] = biological target: B3; test: dominant-negative ToxR reporter assay; heterotypic; one TMD with functional ToxR (dominant phenotype) and one with non-functional ToxR* (negative phenotype) co-expressed in E. coli FHK12; interaction read as reduction of β-galactosidase signal; normalised to poly-Leu* and to expression levels; conditions: partners not purified
[8] = biological target: B4; test: as above; conditions: partners not purified
[9] = biological target: B1; test: as above; conditions: partners not purified

Row | Binder | reduction in signal from the homotypic interaction [7] [%] | reduction in signal from the homotypic interaction [8] [%] | reduction in signal from the homotypic interaction [9] [%] | other results
1 | GNRASALVSVMCCALFLLILLTGVLCGSLIN [TLR2 transmembrane domain (ToxR chimera) G593V] | – | – | – | response (normalized Miller units) [1]: 0.58; response (normalized Miller units) [2]: 0.5; response (normalized Miller units) [3]: 0.44; response (normalized Miller units) [4]: 0.95; response (normalized Miller units) [5]: 0.48; response (normalized Miller units) [6]: 0.54
2 | B1 | > 60 | > 60 | – | –
3 | B2 | > 60 | > 60 | > 60 | –
4 | B3 | – | > 60 | > 60 | –
5 | B4 | > 60 | – | > 60 | –
